This note sets out measurements from patent US20240352438A1, “MEANS AND METHODS FOR DETOXIFYING OCHRATOXIN A” (DSM Austria GmbH, priority 2021, published 2024).

Bounds are passed on as bounds.

The nature of data set [1]: OTA detoxification activity assay (specific activity, fluorescence reduction ex/em 390/450 nm). The following applies: SEQ ID NO: 1 = 100%. It is filed as biochemical. In a few lines: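 Recombinant enzyme preparation with 200 ng/mL OTA in 100 mM sodium phosphate, at pH 6.0 and pH 7.5, 37° C. Degradation followed as the fall in fluorescence at ex/em 390/450 nm. Specific activity taken from the initial linear slope; one unit degrades 1 μmol OTA per min at a starting OTA of […].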

Data set [2] in a line: Thermostability assay: residual OTA detoxification activity after 10 min incubation at 45-99° C. (T50). The format is physicochemical. The following applies: 0.1 mg/mL protein in 20 mM Tris-HCl pH 7.5, residual OTA detoxification activity relative to 4° C. reference aliquot. In a few lines: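 Purified enzyme at 0.1 mg/mL in 20 mM Tris-HCl pH 7.5 was heated 10 min at 45–99 °C, then held at 4 °C. Residual OTA detoxification activity was expressed relative to an aliquot kept at 4 °C throughout; T50 is the temperature range giving 50% activity loss.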

B1: 67 (protein)
chain: MTTRTRILTAFLSLLAANACAADAAPAAPHTVVLRAARMFDGASGKLVDHPQLTIVGNKIVRIAQGDKAEVPAGAEVVDLGDATLLPGFIDAHVHLSGQSSDNWYGDFFDNMMRFPAEQALYGAYYARITLEAGFTSVRDVGSTDWVALGLRNAIDAGKVPGPRMLVSNYAVGSTGGHADQDPIPPHKLPLAGPLQGVCNGPEECRAAVRYQIKYGANVIKFMPSGGVLSLSDPVDAPELSQDEMNAVIGESHAWGRKVAAHAHGDKAAKMAVAAGVDSIEHGSFIEDDTLRAMKAKNVYLVPTISAIAHVEEKIGTFPPVIAEKGRAAAAHLRQTFRHAVQIGVPIALGTDAGAGAHGSNAREFRYMVENGLTPAQALLAGTANAARLLGTFDRVGTLEAGKLADVVAVPGNPIADITVTERPLFVMKDGVVVRRDAVR
modifications: exemplary polypeptide
On to B1, for which, in data set [1], the “Specific OTA detoxification activities in % compared to the enzyme of SEQ ID NO: 1, pH 6.0” value stood at 51% and the “Specific OTA detoxification activities in % compared to the enzyme of SEQ ID NO: 1, pH 7.5” value came out at 28%. The “T50 (temperature at which 50% of the initial activity was maintained)” value in data set [2] was under 63.2 °C.

B2: 80 (protein)
chain: MTTRTRILTAFLSLLAANACAADAAPAAPHTVVLRAARMFDGASGKLVDHPQLTIVGNKIVRIAQGDKAEVPAGAEVVDLGDATLLPGFIDAHVHLSGQSSDNWYGDFFDNMMRFPAEQALYGAYYARITLEAGFTSVRDVGSTDWVALGLRNAIDAGKVPGPRMLVSNYAVGSTGGHADQDPIPPHKLPLAGPLQGVCNGPEECRAAVRYQIKYGANVIKFMPSGGVLSLSDPVDAPELSQDEMNAVIGESHAWGRKVAAHAHGDKAAKMAVAAGVDSIEHGSFIEDDTLRAMKAKNVYLVPTISGIAHVEEKIGTFPPVIAEKGRAAAAHLRQTFRHAVQIGVPIALGTDAGAGAHGSNAREFRYMVENGLTPAQALLAGTANAARLLGTFDRVGTLEAGKLADVVAVPGNPIADITVTERPLFVMKDGVVVRRDAVR
modifications: exemplary polypeptide
For B2, in data set [1], the “Specific OTA detoxification activities in % compared to the enzyme of SEQ ID NO: 1, pH 6.0” value came to 7% and the “Specific OTA detoxification activities in % compared to the enzyme of SEQ ID NO: 1, pH 7.5” value is recorded as 3%. Besides, the “T50 (temperature at which 50% of the initial activity was maintained)” value in data set [2] is 64.0-65.3 °C.

B3: 68 (protein)
chain: MTTRTRILTAFLSLLAANACAADAAPAAPHTVVLRAARMFDGASGKLVDHPQLTIVGNKIVRIAQGDKAEVPAGAEVVDLGDATLLPGFIDAHVHLSGQSSDNWYGDFFDNMMRFPAEQALYGAYYARITLEAGFTSVRDVGSTDWVALGLRNAIDAGKVPGPRMLVSNYAVGSTGGHADQDPIPPHKLPLAGPLQGVCNGPEECRAAVRYQIKYGANVIKFMPSGGVLSLSDPVDAPELSQDEMNAVIGESHAWGRKVAAHAHGDKAAKMAVAAGVDSIEHGSFIEDDTLRAMKAKNVYLVPTISAIAHVEEKIGTFPPVIAEKGRAAAAHLRQTFRHAVQIGVPIALGTDAGVGPHGSNAREFRYMVENGLTPAQALLAGTANAARLLGTFDRVGTLEAGKLADVVAVPGNPIADITVTERPLFVMKDGVVVRRDAVR
modifications: exemplary polypeptide
Turning to B3, in data set [1], the “Specific OTA detoxification activities in % compared to the enzyme of SEQ ID NO: 1, pH 6.0” value came to 70% and the “Specific OTA detoxification activities in % compared to the enzyme of SEQ ID NO: 1, pH 7.5” value was found to be 67%. For the same molecule, the “T50 (temperature at which 50% of the initial activity was maintained)” value in data set [2] was 70.7-72.6 °C.

B4: 70 (protein)
chain: MTTRTRILTAFLSLLAANACAADAAPAAPHTVVLRAARMFDGASGKLVDHPQLTIVGNKIVRIAQGDKAEVPAGAEVVDLGDATLLPGFIDAHVHLSGQSSDNWYGDFFDNMMRFPAEQALYGAYYARITLEAGFTSVRDVGSTDWVALGLRNAIDAGKVPGPRMLVSNYAVGSTGGHADLDPIPPHKLPLAGPLQGVCNGPEECRAAVRYQIKYGANVIKFMPSGGVLSLSDPVDAPELSQDEMNAVIGESHAWGRKVAAHAHGDKAAKMAVAAGVDSIEHGSFIEDDTLRAMKAKNVYLVPTISAIAHVEEKIGTFPPVIAEKGRAAAAHLRQTFRHAVQIGVPIALGTDAGVGAHGSNAREFRYMVENGLTPAQALLAGTANAARLLGTFDRVGTLEAGKLADVVAVPGNPIADITVTERPLFVMKDGVVVRRDAVR
modifications: exemplary polypeptide
Take B4: in data set [1], the “Specific OTA detoxification activities in % compared to the enzyme of SEQ ID NO: 1, pH 6.0” value turned out to be 80% and the “Specific OTA detoxification activities in % compared to the enzyme of SEQ ID NO: 1, pH 7.5” value came to 77%. Further, the “T50 (temperature at which 50% of the initial activity was maintained)” value in data set [2] was under 63.2 °C.

B5: 77 (protein)
chain: MTTRTRILTAFLSLLAANACAADAAPAAPHTVVLRAARMFDGASGKLVDHPQLTIVGNKIVRIAQGDKAEVPAGAEVVDLGDATLLPGFIDAHVHLSGQSSDNWYGDFFDNMMRFPAEQALYGAYYARITLEAGFTSVRDVGSTDWVALGLRNAIDAGKVPGPRMLVSNYAVGSTGGHADQDPIPPHKLPLAGPLQGVCNGPEECRAAVRYQIKYGANVIKFMPSGGVLSLSDPVDAPELSQDEMNAVIGESHAWGRKVAAHAHGDKAAKMAVAAGVDSIEHGSFIEDDTLRAMKAKNVYLVPTISGIAHAEEKIGTFPPVIAEKGRAAAAHLRQTFRHAVQIGVPIALGTDAGVGAHGSNAREFRYMVENGLTPAQALLAGTANAARLLGTFDRVGTLEAGKLADVVAVPGNPIADITVTERPLFVMKDGVVVRRDAVR
modifications: exemplary polypeptide
With B5, in data set [1], the “Specific OTA detoxification activities in % compared to the enzyme of SEQ ID NO: 1, pH 6.0” value is 5% and the “Specific OTA detoxification activities in % compared to the enzyme of SEQ ID NO: 1, pH 7.5” value came to 3%. Further, the “T50 (temperature at which 50% of the initial activity was maintained)” value in data set [2] was 65.3-66.9 °C.

B6: 72 (protein)
chain: MTTRTRILTAFLSLLAANACAADAAPAAPHTVVLRAARMFDGASGKLVDHPQLTIVGNKIVRIAQGDKAEVPAGAEVVDLGDATLLPGFIDAHVHLSGQSSDNWYGDFFDNMMRFPAEQALYGAYYARITLEAGFTSVRDVGSTDWVALGLRNAIDAGKVPGPRMLVSNYAVGSTGGHADQDPIPPHKLPLAGPLQGVCNGPEECRAAVRYQIKYGANVIKFCPSGGVLSLSDPVDAPELSQDEMNAVIGESHAWGRKVAAHAHGDKAAKMAVAAGVDSIEHGSFIEDDTLRAMKAKNVYLVPTISAIAHVEEKIGTFPPVIAEKGRAAAAHLRQTFRHAVQIGVPIALGTDAGVGAHGSNAREFRYMVENGLTPAQALLAGTANAARLLGTFDRVGTLEAGKLADVVAVPGNPIADITVTERPLFVMKDGVVVRRDAVR
modifications: exemplary polypeptide
Regarding B6, in data set [1], the “Specific OTA detoxification activities in % compared to the enzyme of SEQ ID NO: 1, pH 6.0” value is on record as 34% and the “Specific OTA detoxification activities in % compared to the enzyme of SEQ ID NO: 1, pH 7.5” value is listed as 46%. Besides, the “T50 (temperature at which 50% of the initial activity was maintained)” value in data set [2] was 74.4-77.0 °C.

B7: 69 (protein)
chain: MTTRTRILTAFLSLLAANACAADAAPAAPHTVVLRAARMFDGASGKLVDHPQLTIVGNKIVRIAQGDKAEVPAGAEVVDLGDATLLPGFIDAHVHLSGQSSDNWYGDFFDNMMRFPAEQALYGAYYARITLEAGFTSVRDVGSTDWVALGLRNAIDAGKVPGPRMLVSNYAVGSTGGHADMDPIPPHKLPLAGPLQGVCNGPEECRAAVRYQIKYGANVIKFMPSGGVLSLSDPVDAPELSQDEMNAVIGESHAWGRKVAAHAHGDKAAKMAVAAGVDSIEHGSFIEDDTLRAMKAKNVYLVPTISAIAHVEEKIGTFPPVIAEKGRAAAAHLRQTFRHAVQIGVPIALGTDAGVGAHGSNAREFRYMVENGLTPAQALLAGTANAARLLGTFDRVGTLEAGKLADVVAVPGNPIADITVTERPLFVMKDGVVVRRDAVR
modifications: exemplary polypeptide
As for B7, in data set [1], the “Specific OTA detoxification activities in % compared to the enzyme of SEQ ID NO: 1, pH 6.0” value is on record as 102% and the “Specific OTA detoxification activities in % compared to the enzyme of SEQ ID NO: 1, pH 7.5” value worked out at 75%. Further, the “T50 (temperature at which 50% of the initial activity was maintained)” value in data set [2] is under 63.2 °C.

B8: 73 (protein)
chain: MTTRTRILTAFLSLLAANACAADAAPAAPHTVVLRAARMFDGASGKLVDHPQLTIVGNKIVRIAQGDKAEVPAGAEVVDLGDATLLPGFIDAHVHLSGQSSDNWYGDFFDNMMRFPAEQALYGAYYARITLEAGFTSVRDVGSTDWVALGLRNAIDAGKVPGPRMLVSNYAVGSTGGHADQDPIPPHKLPLAGPLQGVCNGPEECRAAVRYQIKYGANVIKFAPSGGVLSLSDPVDAPELSQDEMNAVIGESHAWGRKVAAHAHGDKAAKMAVAAGVDSIEHGSFIEDDTLRAMKAKNVYLVPTISAIAHVEEKIGTFPPVIAEKGRAAAAHLRQTFRHAVQIGVPIALGTDAGVGAHGSNAREFRYMVENGLTPAQALLAGTANAARLLGTFDRVGTLEAGKLADVVAVPGNPIADITVTERPLFVMKDGVVVRRDAVR
modifications: exemplary polypeptide
For the molecule B8, in data set [1], the “Specific OTA detoxification activities in % compared to the enzyme of SEQ ID NO: 1, pH 6.0” value stood at 20% and the “Specific OTA detoxification activities in % compared to the enzyme of SEQ ID NO: 1, pH 7.5” value is 23%. Also, in data set [2], the “T50 (temperature at which 50% of the initial activity was maintained)” value is 74.4-77.0 °C.

B9: 71 (protein)
chain: MTTRTRILTAFLSLLAANACAADAAPAAPHTVVLRAARMFDGASGKLVDHPQLTIVGNKIVRIAQGDKAEVPAGAEVVDLGDATLLPGFIDAHVHLSGQSSDNWYGDFFDNMMRFPAEQALYGAYYARITLEAGFTSVRDVGSTDWVALGLRNAIDAGKVPGPRMLVSNYAVGSTGGHADQDPIPPHKLPLAGPLQGVCNGPEECRAAVRYQIKYGANVIKFMPSGGVLSLSDPVDAPELSQDEMNAVIGESHAWGRKVAAHAQGDKAAKMAVAAGVDSIEHGSFIEDDTLRAMKAKNVYLVPTISAIAHVEEKIGTFPPVIAEKGRAAAAHLRQTFRHAVQIGVPIALGTDAGVGAHGSNAREFRYMVENGLTPAQALLAGTANAARLLGTFDRVGTLEAGKLADVVAVPGNPIADITVTERPLFVMKDGVVVRRDAVR
modifications: exemplary polypeptide
For B9, in data set [1], the “Specific OTA detoxification activities in % compared to the enzyme of SEQ ID NO: 1, pH 6.0” value is 32% and the “Specific OTA detoxification activities in % compared to the enzyme of SEQ ID NO: 1, pH 7.5” value stood at 17%. The “T50 (temperature at which 50% of the initial activity was maintained)” value in data set [2] was 70.7-72.6 °C.
